The values that follow come from PMC12095580, “Wnt signalosome assembly is governed by conformational flexibility of Axin and by the AP2 clathrin adaptor” (Nature Communications, 2025).

Non-standard residues stand in square brackets, D forms with d. No end group written: not given here. pS = N[C@@H](COP(=O)(O)O)C(=O)O; Lip = Lipoyl solubility tag; His6x = hexahistidine tag

Assay [1] concerns the target LRP6-GFP (UniProt O75581). As to the kind of experiment: coIP (GFP IP, α-Axin1 blot densitometry). The following applies: co-expressed with wt GSK3β-HA.
Assay [2] concerns the target His6x-Lip-L2_(LRP6) (LRP6_(1539-1613)) (UniProt O75581). As to the kind of experiment: ITC; binding of GSK3 or Axin to the CPPSPYT element of the distal LRP6 ctail; constructs and concentrations not told. In general terms: Isothermal titration calorimetry measures the heat released or taken up as one component is titrated into another.
A further assay deals with Axin1 LIRα, 345-361 (UniProt O15169). The assay can be described thus: ITC. As to conditions: reference: unphosphorylated 43mer peptide; sites S317,S321,S325.
Assay [3] deals with His6x-Lip-A5_(Axin) (Axin_(308-366)) (UniProt O15169). The assay can be described thus: ITC; 50 μM Axin fragment or GSK3β titrated with 500 μM Lip-L1_(LRP6); 25 °C, 25 mM sodium phosphate pH 6.7, 150 mM NaCl; one set of binding sites; apparent KD assuming 1:1.
Assay [4] deals with LRP6-GFP (UniProt O75581). As to the kind of experiment: coIP (GFP IP, α-HA blot densitometry).
A further assay deals with GSK3β-HA (UniProt P49841). The assay can be described thus: coIP (GFP IP, α-HA blot densitometry).
The next assay addresses FLAG-Axin1 (UniProt O15169). The assay can be described thus: coIP (GFP IP, α-FLAG blot densitometry). As to conditions: HEK293T cells, co-expressed with wt GSK3β-HA.
Assay [5] concerns the target T1, GSK3β-K85R (recombinant, full-length) (UniProt P49841 1-420, K85R).
T1 construct: glycogen synthase kinase 3β, catalytically dead; also called catalytically-dead GSK3; source: E. coli BL21-CodonPlus(DE3)-RIL, purified (glutathione agarose, 3C cleavage, Superdex 200); not shown: GST, N-terminal, cleaved
As to the kind of experiment: NMR titration; BEST-TROSY peak height attenuation (bleaching): 80 μM 15N-labelled protein +/- 80 μM unlabelled partner; 25 mM sodium phosphate pH 6.7, 150 mM NaCl, 293 K. The following applies: both partners purified.

Assay [6] has as its target T2, phosphorylated Axin LIRup peptide (43PPP, Axin_(308-351) including pS317, pS321, pS325) (UniProt O15169 308-351, phosphoserine at 317, 321 and 325).
T2 construct: Axin1 LIRup with 7 residues of LIRα; A308-Q351 counts 44 residues though the peptide is called 43PPP; source: synthetic peptide, bought: Biomatic
T2 peptide (looked up): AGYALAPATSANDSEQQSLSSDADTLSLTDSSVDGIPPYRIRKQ
The assay can be described thus: ITC; 50 μM synthetic 43mer or 43PPP peptide in the cell titrated with 500 μM wt or RKR mutant Axin Lip-LIRα; 25 °C, 25 mM sodium phosphate pH 6.7, 150 mM NaCl. As to conditions: both partners purified.

The target in assay [7] is T3, His6x-Lip-L1_(LRP6) (LRP6_(1463-1538) bearing YYYF > A) (UniProt O75581 1463-1538, YYYF > A (Y1517; position worked out from S1516 and S1521, p-0048) | YYYF > A …, Lipoyl solubility tag omitted. Mutated positions are not given; inferred because LIRup (308-344) should contain exactly five Asp and one Glu, in the order D-E-D4, and the text says all …).
T3 sequence: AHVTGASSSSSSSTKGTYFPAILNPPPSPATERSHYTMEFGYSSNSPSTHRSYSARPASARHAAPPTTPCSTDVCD
As to the kind of experiment: ITC.

Assay [8] has as its target T4, His6x-Lip-L1_(LRP6) (LRP6_(1463-1538) bearing YYYF > A) (UniProt O75581 1463-1538, YYYF > A (Y1517; position worked out from S1516 and S1521, p-0048) | YYYF > A …).
T4 sequence: T3 sequence
The assay can be described thus: ITC.

For another assay, the target named is T5, RKR mutant Axin Lip-LIRα (UniProt O15169 345-361, RKR > A (R347) | RKR > A (K350) | RKR > A (R354)).
T5 chain: PYAIRAQHRAEMQESVQ
The assay can be described thus: ITC; phosphorylated 43PPP.

A further assay has as its target T6, Axin Lip-LIRα (UniProt O15169 345-361).
T6 chain: PYRIRKQHRREMQESVQ
As to the kind of experiment: ITC; phosphorylated 43PPP.

Assay [9] deals with His6x-AP2μ (YxxΦ-binding domain of rat AP2μ) (rat). As to the kind of experiment: ITC; 114 or 100 μM His6x-AP2μ titrated with 2 mM (SYRHFA) or 1.74 mM (…) His6x-Lip-YxxΦ peptide; 25 °C, 50 mM Tris-HCl pH 7.4, 300 mM NaCl.
Setting [10] is: HEK293T cells, co-expressed with wt FLAG-Axin1.

Chain of LRP6-GFP (O75581 20-1613): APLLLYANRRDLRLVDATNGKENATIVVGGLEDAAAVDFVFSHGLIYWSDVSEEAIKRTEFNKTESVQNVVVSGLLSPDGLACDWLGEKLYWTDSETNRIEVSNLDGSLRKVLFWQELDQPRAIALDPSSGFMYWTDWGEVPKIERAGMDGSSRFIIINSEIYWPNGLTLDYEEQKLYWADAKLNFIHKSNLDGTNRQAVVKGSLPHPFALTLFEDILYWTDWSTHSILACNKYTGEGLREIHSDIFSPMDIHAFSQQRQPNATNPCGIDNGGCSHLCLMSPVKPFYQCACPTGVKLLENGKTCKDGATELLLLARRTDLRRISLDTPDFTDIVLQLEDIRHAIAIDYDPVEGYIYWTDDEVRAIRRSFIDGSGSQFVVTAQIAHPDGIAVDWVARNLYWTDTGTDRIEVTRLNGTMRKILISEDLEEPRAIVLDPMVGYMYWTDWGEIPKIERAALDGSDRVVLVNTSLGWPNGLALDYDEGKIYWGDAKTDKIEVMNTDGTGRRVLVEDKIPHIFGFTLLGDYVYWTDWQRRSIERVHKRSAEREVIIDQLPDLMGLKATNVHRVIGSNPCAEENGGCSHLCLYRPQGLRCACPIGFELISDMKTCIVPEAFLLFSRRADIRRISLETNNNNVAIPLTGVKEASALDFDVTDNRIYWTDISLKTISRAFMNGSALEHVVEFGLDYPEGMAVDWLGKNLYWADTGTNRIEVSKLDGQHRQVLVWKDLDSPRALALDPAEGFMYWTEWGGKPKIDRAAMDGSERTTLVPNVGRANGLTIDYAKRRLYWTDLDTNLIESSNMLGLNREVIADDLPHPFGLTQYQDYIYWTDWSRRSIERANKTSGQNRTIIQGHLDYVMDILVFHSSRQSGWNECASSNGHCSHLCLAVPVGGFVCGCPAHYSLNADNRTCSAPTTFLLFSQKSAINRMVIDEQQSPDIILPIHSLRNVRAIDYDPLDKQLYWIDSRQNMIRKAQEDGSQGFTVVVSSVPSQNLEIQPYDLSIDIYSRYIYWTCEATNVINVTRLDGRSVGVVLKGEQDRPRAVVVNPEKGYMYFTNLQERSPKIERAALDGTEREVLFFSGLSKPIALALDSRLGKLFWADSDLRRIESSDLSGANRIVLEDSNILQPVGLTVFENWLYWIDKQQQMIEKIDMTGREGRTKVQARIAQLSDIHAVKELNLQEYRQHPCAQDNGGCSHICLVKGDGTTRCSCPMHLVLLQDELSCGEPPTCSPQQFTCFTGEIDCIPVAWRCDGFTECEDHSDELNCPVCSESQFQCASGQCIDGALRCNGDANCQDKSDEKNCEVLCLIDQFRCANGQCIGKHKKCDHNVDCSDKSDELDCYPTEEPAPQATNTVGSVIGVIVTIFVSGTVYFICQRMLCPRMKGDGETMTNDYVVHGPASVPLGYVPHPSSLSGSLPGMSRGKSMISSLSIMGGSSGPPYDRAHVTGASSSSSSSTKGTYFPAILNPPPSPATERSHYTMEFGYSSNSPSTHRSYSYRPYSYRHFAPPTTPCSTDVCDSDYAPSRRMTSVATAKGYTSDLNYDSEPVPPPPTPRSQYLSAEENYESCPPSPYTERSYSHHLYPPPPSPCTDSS
Chain of His6x-Lip-L2_(LRP6) (LRP6_(1539-1613)) (O75581 1539-1613): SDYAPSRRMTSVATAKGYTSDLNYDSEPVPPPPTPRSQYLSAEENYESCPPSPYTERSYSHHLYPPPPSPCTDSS

For “FLAG-Axin1 (from UniProt O15169) S493D; S497D”, in the assay with LRP6-GFP [1], the ratio to parent came to 0.56.

Take “FLAG-Axin1 (from UniProt O15169) S493A; S497A”: the ratio to parent in the assay with LRP6-GFP [1] is 1.57.

“GSK3β (recombinant, full-length wt) (from UniProt P49841 1-420) (enzyme)” came in with a Kd in assay [2] greater than 500 µM.

Take “Axin1 LIRup peptide, 308-351 (from UniProt O15169) 43PPP peptide (pS317, pS321, pS325)”: in the assay with Axin1 LIRα, 345-361, the “binding against the reference” value was “stronger”.

Take “His6x-Lip-L1_(LRP6) (LRP6_(1463-1538) bearing YYYF > A) (from UniProt O75581 1463-1538) (domain or fragment)”: the Kd in assay [3] was 1.37 µM.

With GSK3β-HA (from UniProt P49841) VE>GR, the ratio to parent with LRP6-GFP [4] (setting [10]) is 0.05; in the assay with LRP6-GFP [4] (co-expressed with FLAG-Axin1 S1>A (the wt = 1.00 lane has wt Axin; wt GSK3β-HA with Axin S1>A reads 2.98)), 0.03.

In the case of “LRP6-GFP (from UniProt O75581) m10 (PPPSPxS>PPPAPxA, motifs A-E)”, the results for the ratio to parent with GSK3β-HA (setting [10]), with GSK3β-HA (co-expressed with FLAG-Axin1 S1>A (the wt = 1.00 lane has wt Axin)) and with FLAG-Axin1 were 0.07, 0.01 and 0.11, respectively.

B1: His6x-Lip-A3_(Axin) (Axin_(308-426)) (domain or fragment, UniProt O15169 308-426, looked up)
chain: AGYALAPATSANDSEQQSLSSDADTLSLTDSSVDGIPPYRIRKQHRREMQESVQVNGRVPLPHIPRTYRVPKEVRVEPQKFAEELIHRLEAVQRTREAEEKLEERLKRVRMEEEGEDGD
notes: Axin1 fragment with LIR, PRTxR motif and GIR; source: E. coli BL21-CodonPlus(DE3)-RIL, purified (Ni-NTA, Superdex 75); 15N-labelled where observed by NMR; not shown: Lipoyl solubility tag (Lip), N-terminal, kept
Take B1: the binding result in assay [5] is “binds”. The Kd in assay [2] was greater than 500 µM.

B2: RKR mutant Axin Lip-LIRα (domain or fragment, UniProt O15169 345-361, looked up)
chain: PYAIRAQHRAEMQESVQ
notes: Axin1 LIRα with R347, K350, R354 changed to alanine; also called Lip-LIRα RKR > A; not shown: Lipoyl solubility tag (Lip), N-terminal, kept
As to B2, the “fold reduction of binding against wt Lip-LIRα” value in assay [6] was roughly 10 x.

B3: Lip-DED4 > A (in Lip-A5_(Axin)) (domain or fragment)
chain: AGYALAPATSANASAQQSLSSAAATLSLTASSVAGIPPYRIRKQHRREMQESVQVNGRV
Consider B3, for which the Kd in [7] amounted to 118 µM.

B4: Lip-RKR > A (in Lip-A5_(Axin)) (domain or fragment)
chain: AGYALAPATSANDSEQQSLSSDADTLSLTDSSVDGIPPYAIRAQHRAEMQESVQVNGRV
B4 had a Kd in [8] of 5.15 µM.

As for AGYALAPAT[pS]AND[pS]EQQ[pS]LSSDADTLSLTDSSVDGIPPYRIRKQ [phosphorylated Axin LIRup peptide (43PPP, Axin_(308-351) including pS317, pS321, pS325)], the results for the Kd with RKR mutant Axin Lip-LIRα and with Axin Lip-LIRα were 448 µM and 47.9 µM, respectively.

The molecule {His6x-Lip}-SYRPYSYRHFA [His6x-Lip-… peptide] showed a Kd in assay [9] of 8 µM.

Molecule {His6x-Lip}-SYRHFA [His6x-Lip-SYRHFA peptide] returned a Kd in [9] of 16.2 µM.
